Test results from paper PMC3597591.

Molecular target: 14-3-3η (UniProt P68511)
Test: GST pull-down from cell lysate
Conditions: reference: lysate with phosphatase inhibitors (PhosStop); sites S2845

binding against the reference: weaker
Substance: Bassoon Bsn28, 2715-3013 (from UniProt O88778) lysate treated with alkaline phosphatase
